# Assay: soluble on expression in E. coli; label from the status in PepcDB or PDB records
row,Sequence,soluble on expression in E. coli
1,MPEVIFNGPAGRLEGRYQPSKEKSAPIAIILHPHPQFGGTMNNQIVYQLFYLFQKRGFTTLRFNFRSIGRSQGEFDHGAGELSDAASALDWVQSLHPDSKSCWVAGYSFGAWIGMQLLMRRPEIEGFMSIAPQPNTYDFSFLAPCPSSGLIINGDADKVAPEKDVNGLVEKLKTQKGILITHRTLPGANHFFNGKVDELMGECEDYLDRRLNGELVPEPAAKRIR,soluble
2,MRCMTLPAYDIAILGAGPVGRVLALLLARLTPQPQRIALLQGGAGLPPTPAGTLGPAADPRVLALNHGSRVLLESLRAWPAHAAEIRHIHVSQRGRLGRTVIDREDFDVPQLGNVVAYAALHAQLEQAVQDCGVTVLSGPPARVDGQDGEGLTVRQGDAALHCRLAVQCDGAGGSDVRRDYAQHAVLTSAHATLPRSGWAWERFTNEGPLAMLPHPQTPEAYSVVWCCAPPRAQRLAGLDDEAFSRELTEAFGTRLGRLRSAAPRHVFPLELKARHAQAHGRLATIGNAAQTLHPVAGQGLNLGLRDAAQLAHALPDWLAAPQADPSPLLAAFARARLADRWVTAGLTDLMPRIFATGLAPVEHACGLALLGLDIAAPLRAPLARHLLQGLRV,not soluble
3,MASDESMVPYYQWNFAPVVRGIARTQARVEVLRDGYTVSNELVPSGPFELANLPLGGGSGELKVIIHESDGTKQVFTVPYDTPAVALRKG,soluble
4,MGSDKIHHHHHHMHHNTWKGIILQKQGLLKPQSVQQICQNLNGLQAQFQPYVHIGFRNRMTNEAFQNQDWQASLTRQWSLRRTVHAYLKSEIPLYIHEGRMASVDYLETVSWDGALPQVKKKFYQVILEALETGPMTREELKILCRAENIGVEEEKQVFNAWGGLLRYMVERGEIYQEYGVKRFHRLRDFQPLPKKEAELEIARRYFTGFGPVSLADARYYFKENKSTVLKWMEQLDLKTVEVAGEERFYLGELEEAELPDCLFVAGFDQLLLGYEKKANPFFNPKYIRNIYTLTGIVKPVVFYKGRFVATWKRDKGTILLDIFEDITQQEEKELEHYRQMFEKIL,not soluble
5,MGSDKIHHHHHHMKSCLYFTFIVLFLTACSTKNLTSLHRENLEQKNENQHYVKLEYEQNVNILPQFAYDINFDAKRYKKYFFNPWHDSFKNYKGQNIFWSFPLYLNSKNTYYFFNKQIIPLSWFKNAINNANIQEFGKLNQKALIIQNTIIKNLPTQRAILKNPFFENEGIPFDYASDGILNTGAPVLISHFSKDKRYAFVLGEAGFGFVESKNLEFFSNDRAKIYENLNFITPLKEKFAIYSEDGKFLFESRIGAIYPYYKEDKNYFYGKIGSKKYKISKKDVSKFPLQFNDKNLKNQLSQVLNLPYGWGGYNFERDCSLLTRDIFSAFGLYLPRNSAAQKNSFNHFDISTLSNSQKKDFLNRFGKAYLSLLYLPGHIMLYAGQITDNNIAIHNIWGLRKDATQRLLISSSVITSLEIGKNEILEDNLLLSRLKEISFINLNEQEKEQIKSYLENIQNK,not soluble
6,MASATTSSKNGKPLVVVYGDYKCPYCKELDEKVMPKLRKNYIDNHKVEYQFVNLAFLGKDSIVGSRASHAVLMYAPKSFLDFQKQLFAAQQDENKEWLTKELLDKHIKQLHLDKETENKIIKDYKTKDSKSWKAAEKDKKIAKDNHIKTVPTAFINGEKVEDPYDYESYEKLLKDKIKLEHHHHHH,soluble
7,MENKKSFFHLHLISDSTGETLMSAGRAVSAQFHTSMPVEHVYPMIRNQKQLAQVIDLIDKEPGIVLYTIVDQQLAEFLDLRCHAIGVPCVNVLEPIIGIFQTYLGAPSRRRVGAQHALNADYFARIEALNFAMDHDDGQMPETYDDADVVIIGISRTSKTPTSIYLANRGIKTANIPVVPNVPLPESLYAATRPLIVGLVATSDRISQVRENRDLGTTGGFDGGRYTDRATIMEELKYARALCARNNWPLIDVTRRSIEETAAAILALRPRTRLEHHHHHH,soluble
8,AHHHHHHASAKWVCKICGYIYDEDAGDPDNGISPGTKFEELPDDWVCPICGAPKSEFEKLEDGSACYSSSPEVIVLREYLLIKIHEDGVIKIPQELAYEVGLVKGAYFLVEIDTDIKELHVERVALPGKKLVEIELVVEDKPGVLAKIAGILGKNGINILFNEAEELESLGLSAIVAVVDVSGAKISLKDLESTLKEINEVKEVKIVEIE,soluble
9,MDSSVPMIDLSSGDDEEVEVAMRRSYLLPPVPERPDGFPSLLFGNGNLSRSTLSINQEISMAPSPFSEITVSSQRPLVARSGSNSSEHNLQIKEAVKKKPVADIAHVSGTFVCVCVRGAQKNFYQKYLIATPSIPKLNTFE,soluble
10,MSSSSFTTERPFTPELLSPAGTLKNMRYAFAYGADAVYAGQPRYSLRVRNNEFNHENLALGIQEAHALGKRFYVVVNIAPHNSKLKTFLRDLKPVIEMGPDALIMSDPGLIMMVRDAFPQMDIHLSVQANAVNWATVKFWQQMGLTRVILSRELSLEEIAEIRAQVPEMELEVFVHGALCMAYSGRCLLSGYINKRDPNQGTCTNACRWEYNVQEGKEDDVGNIVHIHQPIAVKNVEPTLGIGAPTDKVFVIEEAQRPGEYMTASEDEHGTYIMNSKDLRAIQHVERLTQLGVHSLKIEGRTKSFYYCARTAQVYRRAIDDAVAGKPFDPSLLTTLEGLAHRGYTEGFLRRHVHEEQQTYEYGYSVSERQQFVGEFTGVRREGLAEVLVKNKFSRGDSVELMTPKGNIQFTLESMQDKKGQPADIAPGNGHIMYLPIPEEIDVEYGLLIRNLNGTNSRNPHEKA,not soluble
11,MGSDKIHHHHHHMNVLEQFYQLGWTLDSAGGASGEAYMAEQDGQKLFLKRNSNPFIAALSAEGIVPKLVWTKRIETGEVVTAQHWKNGRELNEDEMNQTRVAELLHKIHGSRPLLTMLKRMEMEPITPDIMLNKINASLSREVLTHHVVRRALTYLEDHIPNLDARFFTVVHGDVNHNNWLLSDRDELYLVDWEGAMIADPAIDIGMLLYNYVPQNKWSQWFKTYGVEESVNLNKRMKWYTVIQAIGLIQWYEEQKRYRDMNTWLKFLNEVMNSNLFI,not soluble
12,MNLHICEVTAKNWRSVVALDVAKDQQQFIESNAFSLAESLYEGNGTSVGLYDSETLVGYAMYGWYSVKHKSVWLDRFMIDQQYQGKGYAKRFLRLLIQFLQEKFECKIIYLSLHPDNKLAMGLYESFGFRLNGDIDDEGPVVGVVMELLIDENTSL,not soluble
13,MPGYYKISHSWEYRRRTCQDDVLLEAVITSDTNLNTEKTLLQWLNDKNKNKGTNTVDYKDITCWYYGGVWLHYAINNNALSLYMHSSGEDAFDSLNYCAYEIAKTFYKNHSDISILWIEHPHKRNKLKET,not soluble
14,GPGSMFTQISNAHTEVVTSLVFSPHVVTTCEGGLLCSTSGDDTTALWDLRAGPGVSQRAAHLTGHHVGPVNHALFHPSNAHTLLTASDDRSIGCWDLRRPDRVVGAVSGFQEGVNKMLWLPVTSDGCRGTGGSSSGGGGSVVSACDDGHVYVHALALPDSGSESATVAGAAPVPQVGALVDKFRVSTSTVNDIVLAPNSTSILITASEDCALRSWSLRHAQQMTNTSVGLMEDRLLATLDEFENPVNHVVVVPSGLMAPVESRAAGEDPESSSSRSPAGAAGDAEESADAAAASTGFPRAYQQVHGGDDVEDAEVGSDAGSSAGARQPRRATDISEAAGTACWLLAACSECVFGVDFALRVGEFGTGARAFVGHQDYVRGLEFTSEGKLLTVSDDSTAIEWDLATTDPIRQVKLHEGLVMSSAVSPSRNLLATGTDRGELRVWRLPFATERIGGSP,not soluble
15,MGSDKIHHHHHHMSDKKYNVDEGEIAKFSRIADKWWDKSGEFKTLHDINPLRLDYIDGHADLCGKRVLDVGCGGGILAESMARRGAAFVKGIDMAEQSLETARLHAALNNVADIEYECIRVEDLAEAEPHSFDVVTCMEMMEHVPDPAAIVRACAKLVKPDGMVFFSTINKNPKSYLHLIVAAEYLLKFVPKGTHDWKKFIVPAELARMCRQAGLDVADTKGMTYHVLSQTYALCDSTDVNYMFACRPAF,not soluble
16,MGSDKIHHHHHHMLDKSRLSRFKTQIDSQTEIAKFDALAKEWRDPHGKFKHVLSFNQTRLTAIEDQIASHFGRDLTQDIPFDGLSLLDIGCGVGLLCEPLASQGARVTGIDASEHNITLAHRHANSWSIPIEYRHCLAGDLPREQPQYDVILNTEVIEHVEDQAALVASCCDLLKPGGLMVMATLNRTLRSYLIGIIGAEYIMRYLPTGTHDWHHFVTPQELDEMLTPHGLSTKGVEGMAFNPFTRRWKITSNSAVNYLLYASKPIPGVLEA,not soluble
17,MAIQHPDIQPAVNHSVQVAIAGAGPVGLMMANYLGQMGIDVLVVEKLDKLIDYPRAIGIDDEALRTMQSVGLVDDVLPHTTPWHAMRFLTPKGRCFADIQPMTDEFGWPRRNAFIQPQVDAVMLEGVSRFPNVRCLFSRELEAFSQQDDEVTLHLKTAEGQREIVKAQWLVACDGGASFVRRTLNVPFEGKTAPNQWIVVDIANDPLSTPHIYLCCDPVRPYVSAALPHAVRRFEFMVMPGETEEQLREPQNMRKLLSKVLPNPDNVELIRQRVYTHNARLAQRFRIDRVLLAGDAAHIMPVWQGQGYNSGMRDAFNLAWKLALVIQGKARDALLDTYQQERRDHAKAMIDLSVTAGNVLAPPKRWQGTLRDGVSWLLNYLPPVKRYFLEMRFKPMPQYYGGALMREGEAKHSPVGKMFIQPKVTLENGDVTLLDNAIGANFAVIGWGCNPLWGMSDEQIQQWRALGTRFIQVVPEVQIHTAQDNHDGVLRVGDTQGRLRSWFAQHNASLVVMRPDRFVAATAIPQTLGKTLNKLASVMTLTRPDADVSVEKVA,soluble
18,SNALQPNMRTRVCTVINNNIAHEWTLARIASELLMSPSLLKKKLREEETSYSQLLTECRMQRALQLIVIHGFSIKRVAVSCGYHSVSYFIYVFRNYYGMTPTEYQERSAQRLSNRDSAAS,soluble
19,EMTDLQSTHKDFLFEIEEVGIKNLVYPVLVDQYQTAGTFSFSTSLTKDEKGINMSRIIESVEKHYDNGIELEFNTLYQVLRTLQTNMKQNAAGVDVSGKWFFDRYSPTTNIKAVGNADVTYGLAIDGDKVTRKELTIEATVTTLCPCSKEISEYSAHNQRGVVTVKTYINKDQNIVDDYKNKILDAMEANASSILYPILKRPDEKRVTERAYENPRFVEDLIRLIAADLVEFDWLDGFDIECRNEESIHQHDAFAKLKYRK,not soluble
20,HRIDTKTAQKDKFGAGKNGFTRGNPQTGTPATDLDDDYFDMLQEELCSVVEASGASLEKGRHDQLLTALRALLLSRKNPFGDIKSDGTVQTALENLGLGEGAKLNAATATLGRTGFIAIPVMIGGIEQSVIIQWGWNAAKASASGGDGNTVVFPVAFNNACVAVVANYDNVSAPINAVATGGYTTTSFLLRCAAQTGSYYYNWIAIGY,not soluble
21,MGSDKIHHHHHHMNAQTPIRRPISLVLASPRGFCAGVDRAIQIVERAVEKFGAPVYVRHEIVHNRHVVDRLKALGAVFIEELEEAPDDRPVVFSAHGVPKSVPAEAKARQMIYLDATCPLVSKVHVEAQKHYDAGREIVLIGHAGHPEVIGTMGQLPEGAVTLIEDLKDAAAWEPKDAANVAFLTQTTLSVDDTADMVALLRERFPGIAAPHKEDICYATTNRQDAVKHLAEQSELILVVGSKNSSNSVRLKEVGLKAGARDAHLIDDASGIDWTWFDGISRVGLTAGASAPEDLVQGVIDAISARFDTTVEELVEARETITFKLPRLLTA,not soluble
22,MGSDKIHHHHHHMFKKVAADVLGLSDVGSVITPKDYDKVDADDYVMHEDGEKIYFLIKSKSDEYCFTNKGLLHLDGTSATSKKRTLRRFSYSKYQIKNVALETAGTIDLDVEIKFQMGDEHYSIDVHKKHIEELKDLYKALLKIEEISYDNDITLQYAHKSLDMASNAFSRISNAQVNLAEQFKEMNEIAFNWLVDTKKQYNVKDYGFVFEKFINN,not soluble

# Source: the DeepSol protein solubility set
